From the supplement of paper PMC6757056
± gives the standard deviation of the averaged measurements.

B1: library; a variant is named by its letters at N, in order (parent)
chain: GCUGUCACCGGAAUACCAGCAUCGUCUUGAUGCCCUUGGAAGUCCGGUCUGAUGAGUCCNNNNNGGACGAAACAGC

Key:
theophylline [1] = variants of: B1; assay: FACS-Seq fitted mean relative fluorescence mCherry/BFP without ligand (log10 relative fluorescence); higher = higher reporter protein expression; settings: HEK293T, ligand present: no
Experimental: (§1)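 Hammerhead (sTRSV) ribozyme switch libraries with a ligand aptamer grafted on stem I and a randomized N4-6 loop II, cloned into the 3' UTR of mCherry and transiently transfected into HEK293T cells; RNA-Seq 72 h post transfection with ligand added 1 h before transfection; RNA read count / plasmid DNA read count normalized to the non-cleaving sTRSVctl (x100), log10; sequences with >100 DNA reads. FACS-Seq: lentiviral library sorted into 6 bins after 48 h ligand, log-normal fit mean of mCherry/BFP scaled to controls. Printed sequences are partial switch sequences.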

theophylline [2] = variants of: B1; assay: normalized RNA/DNA level with ligand (relative to sTRSVctl = 100) (log10 (% of sTRSVctl)); higher = less ribozyme self-cleavage, higher mRNA level; settings: ligand concentration (+) RNA-Seq: 5 mM, HEK293T, reporter: mCherry (pCS4076), ligand present: yes
Experimental: as §1

theophylline [3] = variants of: B1; assay: normalized RNA/DNA level without ligand (relative to sTRSVctl = 100) (log10 (% of sTRSVctl)); higher = less ribozyme self-cleavage, higher mRNA level; settings: HEK293T, reporter: mCherry (pCS4076), ligand present: no
Experimental: as §1

theophylline [4] = variants of: B1; assay: FACS-Seq fitted mean relative fluorescence mCherry/BFP with ligand (log10 relative fluorescence); ligand concentration (+) FACS-Seq: 1 mM; higher = higher reporter protein expression; settings: HEK293T, ligand present: yes
Experimental: as §1

Variant | FACS-Seq fitted mean (log10) (theophylline [1]) | normalized RNA/DNA level with ligand (log10) (theophylline [2]) | normalized RNA/DNA level without ligand (log10) (theophylline [3]) | FACS-Seq fitted mean (log10) (theophylline [4])
GAUGU | 0.101 ± 0.097 | 1.88 ± 0.052 | 1.71 ± 0.099 | 0.375 ± 0.068
GAUGC | 0.964 ± 0.13 | 1.98 ± 0.029 | 1.88 ± 0.098 | 1.05 ± 0.072
UCCGG | 1.14 ± 0.16 | 1.97 ± 0.12 | 2.05 ± 0.077 | 1.02 ± 0.03
UCCGA | 0.81 ± 0.1 | 2.12 ± 0.14 | 1.946 ± 0.0097 | 0.6689 ± 0.002
UCCGU | 0.694 ± 0.021 | 2.029 ± 0.013 | 2.03 ± 0.14 | 0.619 ± 0.023
AAUUU | 0.603 ± 0.084 | 1.98 ± 0.021 | 1.915 ± 0.0083 | 0.6371 ± 0.0013
AAUUA | 0.392 ± 0.024 | 1.973 ± 0.0011 | 1.63 ± 0.13 | 0.477 ± 0.006
AAUUC | 0.308 ± 0.094 | 1.981 ± 0.015 | 1.96 ± 0.033 | 0.335 ± 0.031
AAUUG | 0.229 ± 0.1 | 2.02 ± 0.12 | 1.75 ± 0.15 | 0.292 ± 0.011
GCCAU | 0.669 ± 0.019 | 1.99 ± 0.077 | 1.88 ± 0.12 | 0.779 ± 0.05
CCACA | 0.241 ± 0.0081 | 1.97 ± 0.022 | 1.75 ± 0.096 | 0.47 ± 0.086
CCACC | 0.788 ± 0.091 | 1.99 ± 0.087 | 1.97 ± 0.061 | 0.739 ± 0.01
CCACU | 0.682 ± 0.012 | 2.01 ± 0.059 | 1.76 ± 0.16 | 0.818 ± 0.014
AAGUC | 0.771 ± 0.032 | 1.96 ± 0.045 | 1.91 ± 0.1 | 0.866 ± 0.079
AAGUA | 0.448 ± 0.1 | 2 ± 0.064 | 1.63 ± 0.12 | 0.35 ± 0.062
AAGUG | 0.678 ± 0.085 | 1.96 ± 0.04 | 1.79 ± 0.074 | 0.763 ± 0.076
AAGUU | 0.341 ± 0.057 | 1.939 ± 0.0073 | 1.75 ± 0.073 | 0.39 ± 0.035
UCACA | 0.565 ± 0.12 | 2 ± 0.027 | 1.48 ± 0.097 | 0.896 ± 0.07
UCACC | -0.0671 ± 0.15 | 1.92 ± 0.022 | 1.93 ± 0.053 | 0.0211 ± 0.046
UCACU | 0.354 ± 0.029 | 2.003 ± 0.0094 | 1.85 ± 0.092 | 0.438 ± 0.015
ACAUG | 0.862 ± 0.2 | 1.913 ± 0.0094 | 1.81 ± 0.02 | 1.01 ± 0.017
ACAUU | 1.04 ± 0.16 | 2 ± 0.036 | 1.85 ± 0.042 | 1.15 ± 0.18
ACAUA | 0.248 ± 0.061 | 1.94 ± 0.1 | 1.72 ± 0.045 | 0.427 ± 0.032
ACAUC | 0.595 ± 0.053 | 2 ± 0.098 | 1.94 ± 0.03 | 0.599 ± 0.055

Variant | FACS-Seq fitted mean (log10) (theophylline [1]) | normalized RNA/DNA level with ligand (log10) (theophylline [2]) | normalized RNA/DNA level without ligand (log10) (theophylline [3]) | FACS-Seq fitted mean (log10) (theophylline [4])
UCAAA | -0.0221 ± 0.095 | 1.97 ± 0.042 | 1.3 ± 0.091 | 0.459 ± 0.023
UCAAG | 0.7373 ± 0.0072 | 2.034 ± 0.0095 | 1.79 ± 0.16 | 0.974 ± 0.053
UCAAU | 0.686 ± 0.07 | 2 ± 0.028 | 1.83 ± 0.095 | 0.789 ± 0.093
UCAAC | 0.851 ± 0.1 | 1.89 ± 0.03 | 1.79 ± 0.049 | 0.879 ± 0.062
CCCCC | 0.942 ± 0.16 | 2.0303 ± 0.00068 | 1.97 ± 0.032 | 0.862 ± 0.091
CCCCU | 0.771 ± 0.094 | 2 ± 0.042 | 1.951 ± 0.01 | 0.807 ± 0.053
CCCCA | 0.614 ± 0.038 | 2.043 ± 0.0071 | 1.9 ± 0.11 | 0.52 ± 0.035
GCACU | 1.01 ± 0.018 | 1.966 ± 0.019 | 1.86 ± 0.022 | 1 ± 0.083
UAUGU | 0.685 ± 0.011 | 2.111 ± 0.021 | 1.97 ± 0.035 | 0.621 ± 0.026
UAUGA | 0.56 ± 0.0061 | 1.92 ± 0.051 | 1.57 ± 0.064 | 0.686 ± 0.033
UAUGG | 0.926 ± 0.12 | 1.965 ± 0.014 | 1.86 ± 0.12 | 0.992 ± 0.017
UAUGC | 0.174 ± 0.099 | 2.02 ± 0.087 | 2 ± 0.11 | 0.278 ± 0.059
GCAGU | -0.266 ± 0.054 | 1.97 ± 0.12 | 1.774 ± 0.0085 | -0.0491 ± 0.075
GCAGA | 0.899 ± 0.2 | 2.04 ± 0.03 | 1.66 ± 0.083 | 0.875 ± 0.14
ACCGU | 0.885 ± 0.043 | 1.952 ± 0.0024 | 1.83 ± 0.039 | 0.856 ± 0.08
ACCGC | 1.12 ± 0.047 | 2.06 ± 0.056 | 1.99 ± 0.03 | 1.1 ± 0.027
ACCGG | 0.955 ± 0.0037 | 1.95 ± 0.021 | 1.94 ± 0.076 | 1.05 ± 0.12
ACCGA | 0.6309 ± 0.0029 | 2.006 ± 0.015 | 1.77 ± 0.059 | 0.7685 ± 0.0034
ACCUG | 1.02 ± 0.063 | 2.01 ± 0.025 | 1.89 ± 0.043 | 0.898 ± 0.044
ACCUA | 1.18 ± 0.18 | 1.94 ± 0.021 | 1.88 ± 0.16 | 1.136 ± 0.0083
ACCUC | 0.785 ± 0.011 | 2.04 ± 0.034 | 1.98 ± 0.042 | 0.737 ± 0.044
CCCAC | 0.775 ± 0.051 | 1.975 ± 0.011 | 1.95 ± 0.061 | 0.711 ± 0.051
CCCAU | 0.699 ± 0.08 | 1.97 ± 0.028 | 1.901 ± 0.019 | 0.822 ± 0.04
CCCAA | 0.563 ± 0.0093 | 2.012 ± 0.0096 | 1.82 ± 0.13 | 0.684 ± 0.021

Variant | FACS-Seq fitted mean (log10) (theophylline [1]) | normalized RNA/DNA level with ligand (log10) (theophylline [2]) | normalized RNA/DNA level without ligand (log10) (theophylline [3]) | FACS-Seq fitted mean (log10) (theophylline [4])
UAUCG | 1.02 ± 0.21 | 2.07 ± 0.028 | 2 ± 0.07 | 0.934 ± 0.064
UAUCC | 0.705 ± 0.11 | 2.007 ± 0.016 | 2.02 ± 0.14 | 0.572 ± 0.019
GCCCU | 1.072 ± 0.0027 | 1.97 ± 0.025 | 1.98 ± 0.057 | 0.918 ± 0.027
ACACA | 0.454 ± 0.049 | 1.94 ± 0.051 | 1.77 ± 0.036 | 0.653 ± 0.055
ACACG | 1.12 ± 0.1 | 1.93 ± 0.024 | 1.8 ± 0.026 | 1.2 ± 0.07
ACACU | 0.829 ± 0.042 | 2.04 ± 0.094 | 1.85 ± 0.14 | 0.802 ± 0.071
ACACC | 0.952 ± 0.087 | 1.99 ± 0.12 | 2 ± 0.022 | 1.11 ± 0.06
ACAGU | 0.512 ± 0.024 | 1.94 ± 0.057 | 1.65 ± 0.095 | 0.73 ± 0.011
ACAGC | 1 ± 0.1 | 1.97 ± 0.018 | 1.95 ± 0.053 | 0.971 ± 0.05
ACAGG | 0.315 ± 0.055 | 2 ± 0.057 | 1.78 ± 0.045 | 0.357 ± 0.0097
ACAGA | 0.413 ± 0.11 | 1.96 ± 0.064 | 1.54 ± 0.035 | 0.638 ± 0.062
UAUAG | 0.9651 ± 0.0015 | 1.95 ± 0.053 | 1.855 ± 0.015 | 0.896 ± 0.067
UAUAC | 0.747 ± 0.029 | 2.06 ± 0.027 | 1.98 ± 0.088 | 0.749 ± 0.0085
UAUAA | 0.194 ± 0.045 | 2.02 ± 0.052 | 1.47 ± 0.088 | 0.511 ± 0.038
GCAAC | 0.716 ± 0.09 | 1.93 ± 0.066 | 1.826 ± 0.0042 | 0.739 ± 0.094
GCAAG | 0.716 ± 0.087 | 1.97 ± 0.14 | 1.66 ± 0.062 | 0.9 ± 0.035
GCAAU | 1.11 ± 0.06 | 1.96 ± 0.017 | 1.78 ± 0.027 | 1.06 ± 0.046
CCCUA | 0.768 ± 0.05 | 2.01 ± 0.077 | 1.872 ± 0.011 | 0.751 ± 0.022
CCCUC | 0.893 ± 0.045 | 2.032 ± 0.012 | 2.11 ± 0.057 | 0.84 ± 0.019
GCAUU | 0.42 ± 0.1 | 1.938 ± 0.0078 | 1.792 ± 0.0054 | 0.4217 ± 0.00082
GCAUG | 0.8295 ± 0.0081 | 1.939 ± 0.013 | 1.79 ± 0.026 | 0.966 ± 0.067
CCCGA | 0.977 ± 0.19 | 1.956 ± 0.018 | 1.93 ± 0.077 | 0.827 ± 0.058
CCCGU | 0.812 ± 0.08 | 1.91 ± 0.23 | 1.894 ± 0.014 | 0.82 ± 0.087
CCCGC | 1.3 ± 0.15 | 2.02 ± 0.021 | 2.088 ± 0.019 | 1.05 ± 0.028
